Results: the RNAGym collection of RNA variant scans (doi:10.1073/pnas.2313332121)

B1: TPR t1 (parent)
chain: GACCAAUCUGCCCUCAGAGCUCGAGAACAUCUUCGGAUGCAGAGGAGGCAGGCUUCGGUGGCGCGAUAGCGCCAACGUCCUCAACCUCCAAUGCAUCCCACCACAUGAUGAUGCCUGAAGAGCCUUGGUUUUUUG

Variants of: B1
Test: polymerase ribozyme fitness, log enrichment relative to wild type (log ratio); higher = more active; in vitro selection for triplet polymerase activity
Outline: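 PCR was used to build mutant libraries for each subunit of a heterodimeric triplet polymerase ribozyme, which were then transcribed. A single in vitro selection round, in triplicate, used a frozen incubation at −7 °C and recovered extended constructs by gel excision, streptavidin beads and RT-PCR. Fitness is the logarithm of genotype enrichment relative to wild-type enrichment, averaged over replicates with inverse-variance weights. The logarithm is base 2, and after Illumina sequencing only genotypes with ≥10 input reads and ≥1 read per output were kept.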

Variant | polymerase ribozyme fitness (log ratio)
U9C A41C | -0.191
U9C C40A G42C C73A C101A G122A U130A | -1.67
U9A G52A G65C U126C | -5.92
U9G C89A A100U U116A | -4.84
U9C C22U C34A A43G G77A U106A | -7.59
U9A C13A A16U C34G G48C G69U C80U | -4.42
U9G C88U | -0.0494
U9G C88A | -0.00805
U9A U21G A41U G45A U130G | -4.18
U9G A29G G39U U54A A83U | -3.38
U9A C20G U116C | -2.71
U9C C62A A75G C94A G110A | -4.36
U9G C34A C73A G120C | -0.727
U9C G69U U130G | 0.198
U9C G35U C101A | -5.93
U9C G51U G61C C97A G120A U130C | -4.88
U9C G35U A50U | -6.01
U9A C62G C79G C115U | -4.57
U9A C114U G120A C123U | -2.11
U9A G39U G48A C72G C88U C89U G110C | -6.13
U9A G42C C62A C101U | -3.42
U9A G107A | -4.08
U9C U81C C98A | -5.87
U9G A18U C56A U87G | -2.1

Variant | polymerase ribozyme fitness (log ratio)
U9A G19C C85A U112A | -0.364
U9C G42A | -1.15
U9A G58C A66G C85U | -0.571
U9C A41C A118U A119G | 0.0807
U9A G44U C123A | 0.274
U9A G58A G61A C85A | -1.75
U9A U30C G47U | -3.54
U9C U14G C80G | -6.05
U9G C22G C34G G69U | -3.72
U9C C12G C13G A50C C70U C76A U78A C85U | -2.55
U9G A27U A100U | -3
U9G C15U A90G C124A | 1.55
U9A C12U G120U G128C | 0.498
U9G C31A A46C G71A G110A | -6.51
U9C G17U U54C C79A C98U C101A | -5.9
U9C C56G C88G | -1.64
U9G C11A U54G | -0.122
U9A C124U | 1.21
U9A G117C | -1.79
U9A G117A | 1.04
U9A G19C A27G U106C | -4.96
U9A G19U C88A C114A | 1.72
U9C A37U G110U | -0.951
U9A C13G G61U C123G | 1.99

Variant | polymerase ribozyme fitness (log ratio)
U9A G48C C86A C101A C114U C124U | -2.84
U9C C49U | 0.0306
U9C G47C G71U | -2.13
U9G C22A C34A C82U U130C | -6.39
U9C C89A | -0.733
U9G A95G | 0.394
U9G C76G A90C C101U | -1.34
U9G C56G A103U | -4.39
U9A C114U | -0.999
U9G A118U G120U G122A | 1.52
U9G C11A U87A | -0.55
U9A G36U G63U | -1.27
U9G A50C G63C | -1.21
U9A G45U G113U G122U | -2.61
U9C C94A A100C G127C G135U | -3
U9C C40A U130A | -0.631
U9G C56G U81G | -1.23
U9G A37U G42A G45C A95G | -3.58
U9C G113A C114G | -0.741
U9A G17U C62A C88U A91G U132A | -4.47
U9A C62U | 0.575
U9A G36A A119G | 0.68
U9A G10A A46U G69U C79U C102G | -3.8
U9G A37U G42C C86A U112A | -2.41

Variant | polymerase ribozyme fitness (log ratio)
U9C C72U C102A | -1.5
U9A G93A C115U | -1.19
U9G C15U U21C A83C | -0.505
U9C C79A G128C | -2.56
U9A C70U A74G C104A C123A | -3.22
U9C C15G A43U U131C | -2.2
U9C G60A C80U C89U | -1.82
U9C G47C G71U U132C | -2.26
U9G C34U A68G U78C C97U A111U | -6.62
U9A G113A | -0.103
U9G C28A U133A | -4.24
U9A C62A C88U U92A | -4.26
U9C A16U C88A A95C A111U | -5.45
U9G C11G C40U | -4.28
U9G C12G U78C | 0.323
U9G A41U A95C U131A | -1.93
U9A U14A A75U C124U G127C | -0.619
U9G C56G | -0.492
U9G A16U U59C U81A C94A | -1.92
U9A C31G | -4.11
U9G C11A G63C | -0.534
U9G A27C C62U C70U C98U | -6.21
U9A G110A A111U C115U | -6.7
U9C C12A U21A C80A U87A G93U A121U U126G | -5.57

Variant | polymerase ribozyme fitness (log ratio)
U9G A83C C85U A121C U130C | 1.97
U9C C11U | 0.404
U9C G10A G52A G63U | -2.31
U9G C85U C97A C115G | -4.92
U9A G44U | -0.143
U9A C101G | -1.55
U9G A46C | -0.961
U9A C13U C62A C79G C94A U132A | -4.57
U9C G17U C72G A83C | -1.63
U9G C13U C15A C40U G61C | -2.7
U9C A43G G61A C89U | -1.55
U9G C70U C98U | -1.09
U9C C11A A18C C53G C80G C99A G110U | -6.83
U9C A41U C72U U78A G93C | -1.36
U9A C62G C97U U109G | -7.26
U9G C70A C85U A90G C102A | -4.92
U9A C62U G63A A95C A103G U109A | -7.15
U9A G48C C72U U78C C86A C101A C114U C124U | -3.88
U9C C12G C53G C62U | -0.499
U9C C49A C53U C88U U133A | -0.445
U9G C34A A41G | -3.4
U9G C11G | -4.02
U9A C31G G60A C89G A111C G127A | -7
U9C C104U | 0.605

Variant | polymerase ribozyme fitness (log ratio)
U9A C31U G44U G52U G61U A111U | -6.18
U9A C13U G25A A29G C53A C114G | -6.86
U9G C64U | 0.223
U9A C73U C123G U134C | 2.44
U9G A41U A95C | -2.53
U9A C40A G61U G93C C94G C124U | -0.833
U9C G60A C102G G110C G128U | -7.66
U9C G36C A50U C70A A75U U106A | -6.28
U9G C12A G42C G61C C115U | -3.63
U9G C13A U59A | -0.0719
U9G A46C U87A G93C C115A U116C A119C | -3.97
U9A C62G C94U | -0.686
U9A G44C U55C U109G | -4.29
U9C C13U A37C G39U G93A | -5.35
U9G A37U A100C | -0.694
U9G A24G C73U | -0.355
U9G A83C | 0.502
U9A G113A U130G | -0.107
U9A C40G | 0.644
U9A C34G C76G C85G | -6.38
U9G C97A A111G | -6.78
U9C A27U C73A C99A | -7.21
U9A G77U | 1.05
U9A G61A A100U | 0.389

Variant | polymerase ribozyme fitness (log ratio)
U9G C13U A91U G113A A119C G128A | -4.02
U9C A46U C53U A84C C88U | -1.01
U9C G36U G63A | -1.4
U9C G107U U112A A119G | -4.69
U9G C70A C86A C123U | -0.996
U9A G77U C123U | 1.84
U9A G36U | 0.766
U9C A105U U126A U132A | -2.93
U9A G25A | -5.66
U9A G47U C79A A83C | -3.93
U9C A27G G45A G57U C115G | -3.94
U9A G44U C56U G122A | -0.525
U9G C86G A119U | 0.167
U9A C20G C72U U96G C124U | -3.12
U9C C64A U67A C73U C85U G120C | -6.47
U9G A84C C98A C123A | -4.03
U9A G10C U54A C86A G110U U125A | -3.13
U9C G45C G48A A90C | -0.81
U9A G93A U106C | -0.115
U9A C22A C89A G113U A118U G135U | -5.73
U9G C13U C104A | -1.55
U9A G45U | -2.23
U9C G45C U131G | -1.16
